According to the supplement of paper PMC10567573:

B1: APBB1IP (parent)
chain: PPEPLSQVSMWDQRWQDHQPLLPI

Variants of: B1
Assay: protein stability index of a GFP-peptide fusion (GPS, HEK-293T) (PSI 1-6); higher = more stable
Settings: c terminus: a fixed tail appended
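Also: lentivirally expressed fusions sorted by FACS into six bins by GFP to DsRed ratio, PSI derived from sequencing read proportions per bin multiplied by bin number.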

Protein stability index, by site and new letter:
Q13: E 3.56 | M 3.46 | L 2.16 | T 2.78 | V 2.49 | I 2.72 | A 2.54 | R 2.6 | C 2.56 | H 2.79 | G 2.63 | S 3.29 | W 2.91 | P 2.77 | K 2.76 | Y 2.51 | N 3.5 | D 3.51 | F 2.4
L5: Y 2.71 | Q 3.53 | P 3.88 | S 3.26 | W 2.2 | R 3.62 | T 3.19 | V 2.99
V8: F 2.51 | K 3.25 | S 3.52 | Y 2.57 | R 2.83 | D 4.03 | M 3.22 | N 3.36 | Q 2.9 | W 2.21 | C 2.22 | T 2.9 | A 3.02 | H 3.21 | L 2.77 | I 3.25 | G 3.38 | P 3.12 | E 3.48
R14: V 2.92 | D 3.59 | W 3.29 | M 2.68 | L 3.01 | E 3.74 | C 2.79 | G 3.98 | I 3.14 | H 3.19 | P 2.9 | Y 3.12 | Q 2.88 | S 3.84 | K 3.06 | N 3.86 | F 2.86 | T 3.39 | A 2.75
P23: E 3.03 | I 2.04 | A 2.05 | H 2.05 | C 3.48 | F 1.67
M10: H 3.42 | K 2.92 | D 4.12 | P 3.87 | E 3.98 | A 3.52 | C 3.52 | Y 2.51 | V 3.36 | Q 3.2 | G 3.3 | F 2.94 | S 3.35 | L 3.16 | N 3.54 | I 2.79 | T 2.87 | R 3.37 | W 3.12
D12: M 2.33 | W 1.85 | E 2.64 | C 2.34 | P 2.89 | N 2.82 | A 2.64 | K 3.37 | R 2.9 | I 2.48 | S 2.73 | T 3.07 | G 2.15 | L 2.22 | Q 2.11 | V 2.23 | F 2.13 | H 2.6 | Y 2.31
W11: A 4.11 | R 3.4 | C 3.16 | D 4.4 | M 3.57 | G 4.18 | E 4.18 | L 3.77 | Y 3.51 | T 3.73 | H 3.83 | V 3.9 | N 4.06 | I 3.1 | Q 4.25 | F 3.55 | P 3.08 | S 4.04
W15: R 3.41 | I 3.65 | E 4.03 | G 3.62 | T 4.39 | F 3.62 | M 4.02 | D 4.34 | P 3.9 | H 4.17 | S 3.95 | L 3.28 | N 3.7 | V 3.93 | A 3.88 | K 4.05 | Q 4.36 | C 3.39 | Y 3.14
Q16: V 2.7 | T 2.46 | K 3.06 | M 2.99 | L 2.46 | G 2.98 | A 2.23 | R 2.68 | P 3.84 | D 3.52 | H 2.53 | S 2.61 | I 2.72 | W 2.73 | C 2.6 | Y 2.98 | N 2.85 | F 2.83 | E 2.92
Q7: W 2.05 | S 2.81 | C 3.13 | Y 2.27 | P 3.25 | K 2.34 | T 3.3 | M 2.74 | N 3.14 | I 3.07 | A 3.47 | L 2.85 | R 2.93 | D 2.97 | V 3.33 | E 3.56 | G 3.25 | H 3.61 | F 2.95
D17: L 3.26 | Y 2.25 | W 2.79 | Q 2.57 | A 2.5 | F 2.08 | R 2.91 | S 2.53 | V 2.54 | P 3.23 | G 2.81 | N 3.15 | I 2.57 | M 3.24 | H 2.44 | C 2.6 | K 2.78 | E 2.97 | T 2.57
S9: C 2.34 | R 3.27 | G 3.35 | T 2.99 | V 3.35 | P 3.16 | H 3.22 | I 2.86 | M 3.27 | N 3.25 | Y 2.57 | F 2.95 | A 3.4 | W 2.62 | K 3.09 | E 3.56 | D 3.55 | L 2.84 | Q 3.28
P20: T 2.84 | H 3.23 | A 2.75 | N 3.14 | M 3.03 | D 3.33 | R 2.8 | V 2.91 | C 2.95 | S 3.37 | K 2.05 | Q 3.26 | I 2.77 | Y 2.33 | F 2.37 | G 3.38 | W 2.33 | E 3.29 | L 2.61
L21: S 3.26 | I 2.58 | C 3.4 | R 3.58 | Y 3.33 | A 3.88 | D 4.13 | E 4 | P 3.54 | W 2.74 | V 3.28 | H 3.39 | K 3.44 | N 3.88 | Q 3.68 | T 3.93 | F 2.24 | G 3.76 | M 3.4
Q19: W 2.21 | S 2.31 | R 3 | N 3 | M 2.72 | K 2.87 | T 3.02 | I 2.47 | C 2.61 | D 3.74 | F 2.89 | P 2.63 | L 2.83 | V 2.33 | A 3.04 | E 3.48 | H 2.48 | Y 2.44 | G 3.33
H18: M 2.71 | C 3.12 | I 2.69 | G 3.55 | E 4.14 | T 3.44 | A 2.79 | N 2.97 | P 3.34 | D 4.05 | S 3.11 | L 3.09 | K 3.1 | V 2.83 | Y 3.2 | Q 3.01 | F 2.4 | R 2.74 | W 3.02
S6: F 2.23 | Q 3.28 | D 3.45 | V 2.73 | T 2.76 | M 2.82 | N 2.93 | C 2.46 | A 3.09 | R 3.36 | L 2.85 | H 2.71 | K 2.81 | E 3.15 | G 2.9 | P 3.65 | Y 2.09 | I 2.71
L22: W 2.4 | G 3.8 | S 3.55 | I 2.49 | A 3.4 | V 3.2 | N 3.55 | D 3.89 | F 2.77 | H 3.29 | R 3.54 | P 3.12 | M 2.58 | Y 2.44 | Q 3.68 | T 3.74 | K 4.04 | C 3.5
